Reference: article PMC7116876, “Mechanistic Insights into Regulation of the ALC1 Remodeler by the Nucleosome Acidic Patch” (Cell reports, 2020)

How the values were obtained:
[1] = test system: ALC1-catalyzed remodeling of WT/WT nucleosomes; test: Ensemble FRET nucleosome remodeling, WT/WT nucleosomes; type: biochemical, Homo sapiens ALC1; Xenopus laevis histones; details: WT/WT nucleosomes 10 nM, various remodeler concentrations, Michaelis-Menten
Text: (§1) cDNAs for ALC1 and PARP1 were of Homo sapiens origin. Histone proteins (recombinantly expressed in E. coli) were of Xenopus laevis origin. Cell lines as well as growth conditions are described in the Method Details.
(§2) Oligonucleotides used in this study were ordered from IDT (see Table S3). The ALC1^fl (16-879) construct contains the human ALC1 sequence and a 6xHis-tag, as previously published ([Lehmann et al., 2017]). All point mutations were generated by PCR-based site-directed mutagenesis. The plasmid for human PARP1 (1-1014) with an N-terminal 6xHis-tag was a kind gift from John M. Pascal ([Langelier et al., 2017]).
(§3) The DNA constructs used in the nucleosome assembly for single-molecule and ensemble remodeling studies comprised the Widom 601 nucleosome positioning sequence ([Lowary and Widom, 1998]) as well as either 3 bp or 12 bp of linker DNA on one side and 78 bp on the other side (for the single-molecule remodeling construct) or 63 bp of linker DNA on one side and no linker DNA on the other side (for the ensemble remodeling construct). […] The DNA constructs for the assembly of nucleosomes used in fluorescence anisotropy experiments and ATPase assays comprised the Widom 601 positioning sequence without additional linker DNA (for the fluorescence anisotropy construct) or 63 bp of linker DNA on one side and no linker DNA on the other side (for the ATPase assay construct). […]
Nucleosome ensemble remodeling kinetics were measured by monitoring the Cy5 (under 620 nm and 520 nm excitation) and Cy3 (under 520 nm excitation) fluorescence emission signals of a solution of FRET-labeled nucleosomes using a Spark (Tecan) or CLARIOstar (BMG Labtech) multimode microplate reader. […] Reaction kinetics were analyzed assuming a standard Michaelis-Menten mechanism.
(§4) For fluorescence anisotropy binding experiments, the reported values represent the mean ± SEM from 3 independent experiments. […] For ensemble nucleosome remodeling time courses, each experimental condition was recorded in 3 independent experiments, and representative remodeling time courses are shown. […]

[2] = test system: ALC1 ATPase with 145 bp dsDNA; test: DNA-stimulated ATPase activity; type: biochemical, Homo sapiens ALC1; details: 1 μM ALC1, 20 μM or 50 μM 145 bp dsDNA, 1 mM ATP; N = 3 independent experiments
Experimental: ATPase activity was measured using a coupled assay that measures ADP production as described previously, ([Willhoft et al., 2016]). Final concentrations of 0.45 mM NADH, 1.0 mM phosphoenolpyruvate, 54 U/ml pyruvate kinase (Sigma), and 78 U/ml lactic dehydrogenase (Sigma) were used. For measurements of nucleosome-stimulated ATPase activity, reactions contained 20 μM ALC1,2 μM WT/WT nucleosomes, and 1 mM ATP in a volume of 30 μl. Fluorescence was monitored (excitation wavelength: 340 nm; emission wavelength: 430 nm) at 37°C using a CLARIOstar microplate reader (BMG Labtech) and black low-volume 384-well microplates (Corning). For measurements of DNA-stimulated ATPase activity, the absorbance was monitored at 340 nm for reactions containing a final of 1 μM ALC1 and either 20 μM or 50 μM 145 bp nucleosomal double-stranded (ds) DNA in 100 μl. Reaction rates were determined using mean linear slopes. […]
as §4

[3] = test system: individual WT/WT nucleosomes with 3 bp of linker DNA; test: smFRET remodeling, pause duration; type: biochemical, Xenopus laevis histones
Text: The DNA constructs used in the nucleosome assembly for single-molecule and ensemble remodeling studies comprised the Widom 601 nucleosome positioning sequence ([Lowary and Widom, 1998]) as well as either 3 bp or 12 bp of linker DNA on one side and 78 bp on the other side (for the single-molecule remodeling construct) or 63 bp of linker DNA on one side and no linker DNA on the other side (for the ensemble remodeling construct). All constructs were 5’-labeled with Cy5 on the short linker end. The constructs for single-molecule experiments additionally featured a biotin on the long linker end. […] The DNA constructs for the assembly of nucleosomes used in fluorescence anisotropy experiments and ATPase assays comprised the Widom 601 positioning sequence without additional linker DNA (for the fluorescence anisotropy construct) or 63 bp of linker DNA on one side and no linker DNA on the other side (for the ATPase assay construct). […]
Using the DNA constructs for single-molecule FRET described above, we first generated oriented hexasomes with H2A-Cy3 on the short linker side using a salt dialysis method as described previously ([Dyer et al., 2004]; [Levendosky et al., 2016]; [Sabantsev et al., 2019]). […] Data were analyzed using custom scripts for the Fiji distribution of ImageJ ([Schindelin et al., 2012]; [Schneider et al., 2012]), IDL, and MATLAB ([Sabantsev et al., 2019]). […]

[4] = test system: ALC1-catalyzed remodeling of APM/APM nucleosomes; test: Ensemble FRET nucleosome remodeling, APM/APM versus WT/WT nucleosomes; type: biochemical, Homo sapiens ALC1; Xenopus laevis histones; details: 20 μM remodeler, 10 nM nucleosomes, 1.5 mM ATP; n = 3 independent experiments
Text: as §1, §2, §3

[5] = test system: ALC1 ATPase with WT/WT nucleosomes; test: Nucleosome-stimulated ATPase activity; type: biochemical, Homo sapiens ALC1; Xenopus laevis histones
Experimental: ATPase activity was measured using a coupled assay that measures ADP production as described previously, ([Willhoft et al., 2016]). Final concentrations of 0.45 mM NADH, 1.0 mM phosphoenolpyruvate, 54 U/ml pyruvate kinase (Sigma), and 78 U/ml lactic dehydrogenase (Sigma) were used. For measurements of nucleosome-stimulated ATPase activity, reactions contained 20 μM ALC1,2 μM WT/WT nucleosomes, and 1 mM ATP in a volume of 30 μl. Fluorescence was monitored (excitation wavelength: 340 nm; emission wavelength: 430 nm) at 37°C using a CLARIOstar microplate reader (BMG Labtech) and black low-volume 384-well microplates (Corning). For measurements of DNA-stimulated ATPase activity, the absorbance was monitored at 340 nm for reactions containing a final of 1 μM ALC1 and either 20 μM or 50 μM 145 bp nucleosomal double-stranded (ds) DNA in 100 μl. Reaction rates were determined using mean linear slopes. For measurements of nucleosome-stimulated ATPase activity, we estimated Vmax for both ALC1^fl R860W and ALC1^fl R611A/S612A/R860W using the Michaelis-Menten equation and the Km values that we obtained from nucleosome sliding kinetics in Figure 3B.
For fluorescence anisotropy binding experiments, the reported values represent the mean ± SEM from 3 independent experiments. For ATPase activity measurements, the reported values represent the mean ± standard deviation from 3 independent experiments. For ensemble nucleosome remodeling time courses, each experimental condition was recorded in 3 independent experiments, and representative remodeling time courses are shown. Relative remodeling rates derived from these curves represent the mean ± standard deviation from 3 independent experiments. For smFRET experiments, values are reported as mean ± SEM from several experiments as specified in the corresponding figure legends. For association kinetics from live-cell imaging, error bars represent SEM from N ≥ 131 traces from 3 independent experiments.

B1: ALC1^fl R611A/S612A/R860W: ALC1^RLS Arg anchor (R611) and adjacent residue (S612) mutated to alanines (protein)
chain: FLLRLHTEGRAEAARVQEQDLRQWGLTGIHLRSYQLEGVNWLAQRFHCQNGCILGDEMGLGKTCQTIALFIYLAGRLNDEGPFLILCPLSVLSNWKEEMQRFAPGLSCVTYAGDKEERACLQQDLKQESRFHVLLTTYEICLKDASFLKSFPWSVLVVDEAHRLKNQSSLLHKTLSEFSVVFSLLLTGTPIQNSLQELYSLLSFVEPDLFSKEEVGDFIQRYQDIEKESESASELHKLLQPFLLRRVKAEVATELPKKTEVVIYHGMSALQKKYYKAILMKDLDAFENETAKKVKLQNILSQLRKCVDHPYLFDGVEPEPFEVGDHLTEASGKLHLLDKLLAFLYSGGHRVLLFSQMTQMLDILQDYMDYRGYSYERVDGSVRGEERHLAIKNFGQQPIFVFLLSTRAGGVGMNLTAADTVIFVDSDFNPQNDLQAAARAHRIGQNKSVKVIRLIGRDTVEEIVYRKAASKLQLTNMIIEGGHFTLGAQKPAADADLQLSEILKFGLDKLLASEGSTMDEIDLESILGETKDGQWVSDALPAAEGGSRDQEEGKNHMYLFEGKDYSKEPSKEDRKSFEQLVNLQKTLLEKASQEGAALRNKGSVLIPGLVEGSTKRKRVLSPEELEDRQKKRQEAAAKRRRLIEEKKRQKEEAEHKKKMAWWESNNYQSFCLPSEESEPEDLENGEESSAELDYQDPDATSLKYVSGDVTHPQAGAEDALIVHCVDDSGHWGRGGLFTALEKRSAEPRKIYELAGKMKDLSLGGVLLFPVDDKESRNKGQDLLALIVAQHRDRSNVLSGIKMAALEEGLKKIFLAAKKKKASVHLPRIGHATKGFNWYGTERLIWKHLAARGIPTYIYYFPRSK
modifications: left off: His6, end not stated, state not stated
notes: ALC1^RLS Arg anchor (R611) and adjacent residue (S612) mutated to alanines
- fold decrease of maximum rate for remodeling versus ALC1^fl R860W [1]: ~ 6.4 fold
- fold increase of Michaelis constant for remodeling versus ALC1^fl R860W [1]: ~ 5.3 fold
- DNA-stimulated ATPase activity, ALC1^fl R860W versus ALC1^fl R611A/S612A/R860W [2]: essentially identical DNA-stimulated ATPase activity
- average binding time relative to average pause duration (pause fold shorter) ([3]; remodeler concentration 20 μM): 2.8 fold
- increase in observed pause duration on lowering remodeler concentration by a factor of 4 ([3]; remodeler concentration lowered 4-fold): 30%
- fold decrease in remodeling rate, APM/APM versus WT/WT nucleosomes [4]: ~ 3.2 fold
- fold reduction of ATPase rate versus ALC1^fl R860W ([5]; 20 μM ALC1, 2 μM WT/WT nucleosomes, 1 mM ATP, 37°C, n = 3 independent experiments): ~ 2.5 fold
- fold reduction of ATPase rate versus ALC1^fl R860W, saturating conditions (Vmax) ([5]; under saturating conditions, Vmax estimated with Michaelis-Menten equation and Km values from nucleosome sliding kinetics): ~ 2 fold
